Results published in PMC4259888.

What was measured:
[1] = target: HIV-1 CA hexamers (A14C/E45C/W184A/M185A) (HIV-1); experiment: SEC; size-exclusion chromatographic profiles of purified individual CA hexamers, pentamers and monomers
[2] = target: HIV-1 CA pentamers (A21C/E22C/W184A/M185A) (HIV-1); experiment: as above

Row | Substance | stoichiometry N [1] | stoichiometry N [2]
1 | HIV-1 CA hexamers (A14C/E45C/W184A/M185A) (natural protein) | 6 | –
2 | HIV-1 CA pentamers (A21C/E22C/W184A/M185A) (natural protein) | – | 5
